Experimental data reported in patent US20220144895A1, “DE NOVO DESIGN OF TUNABLE PH-DRIVEN CONFORMATIONAL SWITCHES” (University of Washington, priority 2019, published 2022).
Entries after “also recorded” stand apart in the source; their conditions may differ.

Legend:
[1] = Native mass spectrometry of pH-induced changes in oligomeric state; format: physicochemical; conditions: for pH response of oligomeric state (pH-induced disassembly): pH ~7 to ~3
In short: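 Protein in 200 mM ammonium acetate/50 mM triethylammonium acetate, acid-adjusted to each target pH, was held 30 min on ice and sprayed by nESI at 5 μM monomer or 1.67 μM trimer. Oligomer fractions came from integrated charge-state series, then fitted by nonlinear least squares.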

[2] = Cryo-electron microscopy and tomography of proteins with DOPC liposomes; conditions: gold-nanoparticle conjugates; for membrane deformation and disruption by cryo-EM: pH 5
Description: The conjugation reactions were performed immediately prior to use for electron microscopy imaging. […] The grids were prepared using a Vitrobot Mark IV (FEI) at 4 C and 100% humidity before being plunge-frozen in ethane cooled with liquid nitrogen.
Electron micrographs were collected using a Tecnai G2 Spirit™ Transmission Electron Microscope (FEI) operated at 120 kV and equipped with a 4k×4k Gatan Ultrascan CCD camera at a nominal magnification of 26,000× or a Tecnai TF-20 Transmission Electron Microscope (FEI) operated at 200 kV equipped with a K2 Summit Direct Electron Detector (Gatan).
Projection micrographs collected on the TF-20 were captured with the detector operating in counting mode. Specimens were imaged at 14,500 magnification, giving a pixel size of 0.254 nm, with a dose of ˜18e−/Å^2 across 75 200 ms movie frames. Data were collected in a semi-automated fashion using Leginon™ (49) and micrograph movie frames were aligned using MotionCor2™ (50). Leginon™ was used to collect tomography tilt series from −48 to +48 degrees bidirectionally in 3 degree increments with a total accumulated dose of ˜100 e−/Å^2. Reconstructions were processed using etomo in the IMOD™ software suite (31) with CTF parameters estimated from CTFFIND4™ (52). Reconstructed tomograms were visualized and measurements were made using ImageJ™ (53).

U2-OS cells = assay: Colocalization of +36GFP fusions with lysosomal membrane (confocal microscopy); format: cell-based; conditions: 5 μM, 1 hr
Description: U-2 OS (ATCC) cells were cultured in DMEM supplemented with 10% (v/v) inactivated FBS (Corning), 2 mM glutamine, penicillin (100 IU/mL), and streptomycin (100 μg/mL) at 37° C. and 5% CO2. The glass-bottom coverslip chambers were pre-coated with 500 μg/mL of Matrigel (Corning). Transfection of LAMP1-HaloTagTM was performed using Lonza Nucleofector system according to the manufacturer's specifications. After overnight of recovery and expression, the cells expressing LAMP1-HaloTagTM were labeled with 100 nM JF646-HTL for 30 minutes and washed three times with pre-warmed DMEM medium. The final concentration of 5 μM+36GFP fusion proteins was incubated with the LAMP1-HaloTagTM expressing U-2 OS cells on a pre-coated coverslip for 1 hr. Cells were fixed with 4% paraformaldehyde for 20 min at room temperature (RT) and quenched/rinsed with PBS supplemented with 30 mM glycine. Then, the coverslips were mounted on FluoroSaveTM (Millipore). For pH measurement of the lysosome, LysoSensorTM Yellow/Blue DND-160 was incubated at 1 mg/mL overnight and washed twice prior to imaging (54). The final concentration of 5 μM protein was incubated with the LAMP1-HaloTag expressing U2-OS cells that were loaded with 1 mg/mL LysoSensorTM Yellow/Blue DND-160 for 1 hr. In separate chambers, LysoSensorTM Yellow/Blue DND-160 loaded cells were incubated with bafilomycin A1 (1 μM) and chloroquine (50 μM) for 1 hr as a control. For fixed cell confocal microscopy, a customized Nikon TiE inverted scope outfitted with a Yokogawa spinning-disk scan head (#CSU-X1) along with an Andor iXonTM EM-CCD camera (DU-897) with […] exposure time was used to collect 3D images using an SR Apo TIRF 100×1.49 oil-immersion objective. […] coefficients were calculated in 3D with JF646 signal (LAMP-HaloTag) and +36GFP signal (corresponding proteins) using Imaris software with thresholding. Zeiss 880 equipped with AiryScanTM was also used to obtain high resolution images using a Plan-Apochromatic 63×/1.4 oil DIC objective.

Molecule	pH response of oligomeric state (pH-induced disassembly) ([1]; native MS)	reversibility of disassembly ([1]; pH lowered with acetic acid, then raised by ammonia or buffer exchange)	membrane deformation and disruption by cryo-EM [2]	colocalization with lysosomal membranes (U2-OS cells)	cooperativity of the pH-induced transition ([1]; native MS at different pH values)	pH transition point of disassembly (pH set point, pH0) ([1]; native MS, evaluated from pH 7 down to pH 3)	interaction with liposomes by cryo-EM ([2]; pH 5 and pH 8)	colocalization with lysosomal membranes (U2-OS cells; listed as I56V)
pRO-2: designed pH-responsive homotrimer, SEQ ID NO: 1-2 (protein) chain 1: MGSHHHHHHGSGSENLYFQGSEYEIRKALEELKAATAELKRATASLRAITEELKKNPSEDALVEHNRAIVEHNAIIVEHNRIIAAVLELIVRAIK chain 2: SEYEIRKALEELKAATAELKRATASLRAITEELKKNPSEDALVEHNRAIVEHNAIIVEHNRIIAAVLELIVRAIK	predominantly monomeric at pH 4	re-association of monomers into trimer	widespread membrane deformation and disruption of the lipid bilayer	colocalize with lysosomal membranes and are not degraded				
pRO-2 I56V: pRO-2 mutant, SEQ ID NO: 17-18 (protein) chain 1: MGSHHHHHHGSGSENLYFQGSEYEIRKALEELKAATAELKRATASLRAITEELKKNPSEDALVEHNRAIVEHNAIVVEHNRIIAAVLELIVRAIK chain 2: GSEYEIRKALEELKAATAELKRATASLRAITEELKKNPSEDALVEHNRAIVEHNAIVVEHNRIIAAVLELIVRAIK	most pH-sensitive		widespread membrane deformation and disruption of the lipid bilayer	clearly localized within lysosomes	Neither of the mutations substantially affect the cooperativity	approximately 5.8 pH	directly interacts with liposomes at pH 5 but not at pH 8; also recorded: interacts directly with liposomes at pH 5 but not pH 8	colocalize with lysosomal membranes and are not degraded; also recorded: most strongly colocalized with the lysosomal membrane
